Assay: yeast display, Sf9 membrane polyspecificity reagent, FACS + sequencing; frameworks hold sequencing errors
How it was run: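 Using colony PCR, genes from sorted yeast display clones were amplified, then sequenced on MiSeq at 2 × 250 and filtered by CDR length. The clones had been stained with 10% biotinylated, detergent-solubilized Sf9 membrane reagent for 1 hour at 4 °C and sorted by FACS into low and high (top ~1%) gates on anti-HA and streptavidin fluorescence. Polyreactivity labels come from the gate of origin.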

| Sequence | polyreactivity (PSR sort gate) |
| --- | --- |
| EDQLGESGGGLVQAGGSLRLSCAASGRTFYSYARGWSRQAPVKERELVAGINGGGSTYYADSVKGRFTISRDNAKNTVYLQMNSLKPEDSPVYYCAARRYDIRYYYVTYRPPKMYYWGQGTQVTVSS | high polyreactivity |
| EEELVESGGGFVQVGGSLRLSCAASGSIFVENAMGWYRQAPGKARELVAAITSGGSTNYADSVKGRFTISRDNAKNTVYLQMNSLKPEDTAVYYCNADENYGYYTHFGYWGQGTQVTVSS | low polyreactivity |
| EEELVESGGGLVQAGGSLRLSCAASGRTFVYNAMGWYRQAPGKERELVATITRGVSTNYADSVKGRFTISRDNAKNTVYLQMNSLKPEDTAVYYFAAVWYYQFGVWGYYWGQGTQVTVSS | low polyreactivity |
| EVQIVESGGCLVQAGGSLGIRCAASGRIFNIYAMGWYRQAPGKERELFAAISRGGGSKYYADSVKGRFTISRDNAKKTVDLQLNRLKPVDTAVYYCNTDRFPSGRIHRYNYWGQGTQVSVSS | low polyreactivity |
| EVQLVESGGGLLQPGGSLRVSFAASGYIYSRYRMGWYRQAPGKGREFVAAISGGSSTNYADSVKGRFTISRDNSKNTVFLQMNSLRAEDTAVFYCADFKIDSDPRVYWGQGTQVTVSS | low polyreactivity |
| EVQLVESGGGLVQAGGSLRLSCAASGFIFVSYAMGWYRQAPGKERELVAAISWSGGNTYYADSVKGRFTISRDNAKNTVYLQMNSLKPEDTAVYYCNTDKRSYPTHRRDFGYWGQGTQVTVSS | low polyreactivity |
| EVQLVESGGGLVQAGGSLRLSCAASGGTFRYYAMGWSRQAPGKERELVASSSSGGSTNYADSVKGRFTISRDNAKNTVYLQMNRLKPEDTAVYYCARRRFYYGHHPGSSWYDYWGQGTQVSVSS | low polyreactivity |
| EVQLVESGGGLVQAGGSLRLSCAASGRIFKYYTMGWYRQAPGKERELVAAISRDDSTNYADSVKGRFTISRDNAMNTVYLQMNSLKPEDTAVYYCAKGYHQYAGFYYWGQGTQVTVSS | high polyreactivity |
| EVQLVESGGGLVQAGGSLRLSCAASGRTFNRYTMGWYRQAPGKERELVAAISRGAGTNYADSVKGRFTISRDNAKNTVYVQMNSLKPEDTAVYYCNARPYGWYASHEYGYWGQGTQVTVSS | high polyreactivity |
| EVQLVESRGGLVQAGGSLRLSSADSGLTFPYNTMGWYRQAPGTERELVAAITARGGRTYYADSVKGRFTISRDNAKNTVYLQMNSLKPEDTAVYYCNADRTRGYQRYDYWGQGTQVTVSS | high polyreactivity |
| HAQLQESGGGMVQAGGSLRRSCAASGSIILFSGMGWYRRARGKERELVASIGFGSITYYADRVKGRFTISRDNANNTVYLQMNSLKPEDTAVYYCAVQVQDESWLDYWGQGTQVTVSC | low polyreactivity |
| HDHLVESGAGLVQAGGSLRLSCAASGLIFPSNAMGWYRQAPGKERELVAAITNGGRTYYADSVKGRFTISRDNATNTVYLQMNSMKPEDTSVYYCNAGYTYRGYWSYGYWGQGTQVTVSS | high polyreactivity |
| HFQREESGGGLVQAGGSLRLTCAASGSTFGPYVMGWYRQARGKERELVAAISDTTGNTYYADSVKGRFTLSRDNAKNTVYLQMNSLKPEDTAVYYCNVDWYWGDYDYRGQGTQVTVSS | low polyreactivity |
| HLQLVESGGGLVQAGGSLRLSCAASGRIFPGYAMGWYRQAPGKERELVAAIDGTGTSTYYADSVKGRFTISRDNAKNTVDLQMNSLNPEDTAVYYCAADGRPRGTFGYWGQGTQVTVSS | low polyreactivity |
| HLQMQESGGGLVQAGGSLRLSCASSGSIFQATYMGWYRQAPGKEREFVASITYGSITNYADSVKGRFTIGRDNAKDTLYLQMNSLKPEDTAVYYCAVDRHYIPAFHYWGQGTQVTVSS | low polyreactivity |
| HVHQQGSGGGLAQARDSLRLSCAASGTNFSEYNNGLVSQGAGQRTRTCCRYWCWGNTYYADSAKGRLTSSRDNAKYNVDLQKNSLKPEDTAVYYCAFILPYPSRHIDRGQGTQVTVSS | high polyreactivity |
| HVKLQESCGGLVPAGGSLRLSSAASATISYARNMASYLQAPGTERELVAAIDRGASTYYADSVKGLFTISRDNAKNTVYLQIYSLKPEDTAVYYCAAEYHDRWEDRYWGQGTQGTVSS | high polyreactivity |
